Each binder was assayed against T1, MUC1 (mucin-1) on MUC1-expressing cells (human, UniProt P15941 24-1255, underglycosylated / partially glycosylated tumor-associated glycoforms) (assay: flow cytometry, purified Fab dilutions on cellular MUC1 (ETA cells); data not shown).
T1 construct: whole, on cells; also called cellular MUC1; tumor-associated MUC1
Protocol: Specific binding of the Fabs was measured by FACScalibur analysis (Becton Dickinson, Oxnard, Calif.) as described by Henderikx et al. (Cancer Res., 58: 4324-4332 (1998)). For affinity studies on cells with recombinant Fabs, the following flow cytometry experiment was carried out. Fab fragments were purified from the periplasmic fraction by IMAC and gel filtration as described in (Roovers et al., Br. J. Cancer, 78: 1407-1416 (1998)). Protein concentrations were measured with the bicinchoninic acid method (Sigma, St. Louis, Mo., USA). Two-fold serial dilutions of these Fabs were made and incubated, for each dilution point, with 2×10⁵/100 μl ETA cells (transfected 3T3 cells (Acres et al., J. Immunol., 14: 136-1443 (1993)). After trypsinisation, cells were washed one time in RPMI 10% FCS, 0.1% NaN₃ (incubation buffer). Then, cells were incubated with appropriate dilution for 1 hour at room temperature (RT), on a rotator. As negative controls, 2×10⁵ 3T3 mouse fibroblast cells were also incubated with the highest concentrations of antibodies. As a secondary negative control, ETA cells without primary antibody were used. Cells were spun down by centrifugation for 3 minutes at 611×g. Between incubations, cells were washed with incubation buffer. In a second incubation, anti-Myc antibody (6 μg/ml 9E10), directed against the Myc-tagged Fabs, was added for 30 minutes in incubation buffer at RT. After washing once, rabbit anti-mouse-FITC was used at RT for 30 minutes (Dako). Detection of bound antibodies was performed by means of flow cytometry on a FACSCalibur (Becton Dickinson, Oxnard), and results analyzed with the CELLQuest program (Becton Dickinson). Mean intensity was plotted against the concentration of the antibodies.
The relative ranking of the three clones from highest to lowest affinity (i.e., 7D1>7F3>7F9) appear to have stayed the same, but the positioning of both the wild type clone PH1 and best BIAcore mutant 5C8 appearef to be different from what was expected on the basis of the BIAcore affinity.

T1 sequence (P15941 24-1255): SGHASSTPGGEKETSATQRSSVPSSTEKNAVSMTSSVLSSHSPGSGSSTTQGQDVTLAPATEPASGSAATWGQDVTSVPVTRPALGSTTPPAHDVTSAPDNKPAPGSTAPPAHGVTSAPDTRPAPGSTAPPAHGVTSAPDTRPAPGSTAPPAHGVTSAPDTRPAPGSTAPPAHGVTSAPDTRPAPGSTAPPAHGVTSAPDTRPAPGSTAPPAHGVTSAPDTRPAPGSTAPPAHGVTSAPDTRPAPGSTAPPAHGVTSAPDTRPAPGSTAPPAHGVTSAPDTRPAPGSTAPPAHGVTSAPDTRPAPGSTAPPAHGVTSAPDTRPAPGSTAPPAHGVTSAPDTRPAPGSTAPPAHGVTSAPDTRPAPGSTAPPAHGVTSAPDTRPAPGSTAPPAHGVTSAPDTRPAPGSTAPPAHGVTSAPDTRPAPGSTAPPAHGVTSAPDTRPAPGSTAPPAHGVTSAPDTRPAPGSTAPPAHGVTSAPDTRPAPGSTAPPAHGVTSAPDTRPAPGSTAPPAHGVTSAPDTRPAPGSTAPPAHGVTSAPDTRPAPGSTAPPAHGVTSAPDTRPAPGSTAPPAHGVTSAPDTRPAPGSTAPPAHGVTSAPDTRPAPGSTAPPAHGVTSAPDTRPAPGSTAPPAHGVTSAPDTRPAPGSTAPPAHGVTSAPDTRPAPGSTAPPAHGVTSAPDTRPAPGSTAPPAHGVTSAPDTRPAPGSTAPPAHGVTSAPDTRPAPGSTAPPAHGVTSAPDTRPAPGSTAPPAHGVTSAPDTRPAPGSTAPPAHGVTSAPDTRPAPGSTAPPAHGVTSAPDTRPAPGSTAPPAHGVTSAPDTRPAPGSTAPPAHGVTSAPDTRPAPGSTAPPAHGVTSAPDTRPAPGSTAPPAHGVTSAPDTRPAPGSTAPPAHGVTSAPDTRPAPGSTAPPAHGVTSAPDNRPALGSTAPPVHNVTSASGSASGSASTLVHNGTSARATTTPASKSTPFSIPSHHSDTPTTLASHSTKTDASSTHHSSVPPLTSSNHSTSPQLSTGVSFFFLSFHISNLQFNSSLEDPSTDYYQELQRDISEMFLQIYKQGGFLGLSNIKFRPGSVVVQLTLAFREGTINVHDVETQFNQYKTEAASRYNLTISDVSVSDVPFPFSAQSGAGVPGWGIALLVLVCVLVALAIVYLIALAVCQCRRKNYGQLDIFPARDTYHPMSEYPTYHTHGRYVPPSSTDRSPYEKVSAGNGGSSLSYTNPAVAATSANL

Binder | binding result
7D1 (Fab, V domains shown, PH1 Fab variant; also called clone 7D1) VH: QVQLVQSGGGLVQPGGSLRLSCAASGFTFRSNAMGWVRQAPGKGLEWVSGISGSGGSTYYADSVKGRFTISRDNSKNTLYLQMNSLRAEDTAVYYCAKHTGGGVWDPIKHWGQGTLVTVSS VL: EIVLTQSPLSLPVTPGEPASISCRSSQSLLHSNGYTYLDWYLQKPGQSPQLLIYSGSHRASGVPDRFSGSVSGTDFTLRISRVEAEDVGVYYCMQGLQSPFTFGPGTKVDIKR | binds
7F3 (Fab, V domains shown, PH1 Fab variant; also called clone 7F3) VH: QVQLVQSGGGLVQPGGSLRLSCAASGFTFRSNAMGWVRQAPGKGLEWVSGISGSGGSTYYADSVKGRFTISRDNSKNTLYLQMNSLRAEDTAVYYCAIHTGGGVWDPIKYWGQGTLVTVSS VL: EIVLTQSPLSLPVTPGEPASISCRSSQSLLHSNGYTYLDWYLQKPGQSPQLLIYSGSHRASGVPDRFSGSVSGTDFTLRISRVEAEDVGVYYCMQGLQSPFTFGPGTKVDIKR | binds
7F9 (Fab, V domains shown, PH1 Fab variant; also called clone 7F9) VH: QVQLVQSGGGLVQPGGSLRLSCAASGFTFRSNAMGWVRQAPGKGLEWVSGISGSGGSTYYADSVKGRFTISRDNSKNTLYLQMNSLRAEDTAVYYCAKHTGGGVWDPIGYWGQGTLVTVSS VL: EIVLTQSPLSLPVTPGEPASISCRSSQSLLHSNGYTYLDWYLQKPGQSPQLLIYSGSHRASGVPDRFSGSVSGTDFTLRISRVEAEDVGVYYCMQGLQSPFTFGPGTKVDIKR | binds
